Test results from US20100076060.

What was measured:
[1] = molecular target: T1, 4-1BB (CD137) extracellular portion (Mus musculus) (UniProt P20334); test: filter; settings: 2'-F pyrimidines
T1 sequence: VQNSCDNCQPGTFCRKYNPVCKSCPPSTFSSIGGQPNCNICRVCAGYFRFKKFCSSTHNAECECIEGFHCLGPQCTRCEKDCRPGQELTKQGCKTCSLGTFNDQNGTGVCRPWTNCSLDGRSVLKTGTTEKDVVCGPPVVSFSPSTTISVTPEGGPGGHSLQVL

[2] = molecular target: 4-1BB (CD137) extracellular portion (Homo sapiens) (UniProt Q07011); test: filter; settings: 2'-F pyrimidines; alternating mouse/human selection pool
4-1BB (CD137) extracellular portion (Homo sapiens), sequence (Q07011 24-186): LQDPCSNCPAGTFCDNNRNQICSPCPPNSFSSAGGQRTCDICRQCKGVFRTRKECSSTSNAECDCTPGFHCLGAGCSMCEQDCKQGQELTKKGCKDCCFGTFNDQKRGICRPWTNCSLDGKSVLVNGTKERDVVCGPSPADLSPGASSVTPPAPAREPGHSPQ

Sequence | Kd ([1]; round 12 pool) [µM] | Kd ([1]; alternating mouse/human selection pool) [µM] | Kd [2] [µM]
GGGAGAGAGGAAGAGGGAUGGGNNNNNNNNNNNNNNNNNNNNNNNNNNNNNNNNNNNNNNNNCAUAACCCAGAGGUCGAUAGUACUGGAUCCCCCC [mouse 4-1BB selection round 12 pool] | 0.05 |  | 
GGGAGAGAGGAAGAGGGAUGGGNNNNNNNNNNNNNNNNNNNNNNNNNNNNNNNNNNNNNNNNCAUAACCCAGAGGUCGAUAGUACUGGAUCCCCCC [mouse/human 4-1BB alternating selection final pool] |  | 0.2 | 0.023
